6 molecules from article PMC11098746 (2024) can be followed below.

No end group written: not given here.

Holding throughout (assay): AVEXIS screen signal:noise (double-corrected)
Test [1] has as its target T1, ADP156.
T1 chain: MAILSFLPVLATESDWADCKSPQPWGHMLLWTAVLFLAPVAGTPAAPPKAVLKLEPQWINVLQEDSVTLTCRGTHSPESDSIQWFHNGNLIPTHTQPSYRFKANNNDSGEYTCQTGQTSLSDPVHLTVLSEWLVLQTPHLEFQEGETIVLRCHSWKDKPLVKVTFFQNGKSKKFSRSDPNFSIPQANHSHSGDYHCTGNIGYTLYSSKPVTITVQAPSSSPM

Test [2] concerns the target ADP369.
Test [3] deals with T2, ADP341.
T2 chain: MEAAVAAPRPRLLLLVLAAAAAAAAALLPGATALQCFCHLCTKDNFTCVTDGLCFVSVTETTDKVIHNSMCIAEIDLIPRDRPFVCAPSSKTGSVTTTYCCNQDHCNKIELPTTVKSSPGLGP

Test [4] addresses T3, ADP267.
T3 chain: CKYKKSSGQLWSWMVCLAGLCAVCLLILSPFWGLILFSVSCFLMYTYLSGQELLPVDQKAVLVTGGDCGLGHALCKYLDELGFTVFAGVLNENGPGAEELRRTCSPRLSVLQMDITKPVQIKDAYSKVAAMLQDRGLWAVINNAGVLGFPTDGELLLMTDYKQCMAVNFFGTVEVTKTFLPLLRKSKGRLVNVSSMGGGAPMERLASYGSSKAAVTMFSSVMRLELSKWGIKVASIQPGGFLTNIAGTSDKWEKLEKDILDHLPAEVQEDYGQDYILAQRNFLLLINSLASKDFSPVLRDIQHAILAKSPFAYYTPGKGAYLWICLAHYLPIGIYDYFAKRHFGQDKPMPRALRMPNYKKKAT

Test [5] addresses T4, ADP298.
T4 chain: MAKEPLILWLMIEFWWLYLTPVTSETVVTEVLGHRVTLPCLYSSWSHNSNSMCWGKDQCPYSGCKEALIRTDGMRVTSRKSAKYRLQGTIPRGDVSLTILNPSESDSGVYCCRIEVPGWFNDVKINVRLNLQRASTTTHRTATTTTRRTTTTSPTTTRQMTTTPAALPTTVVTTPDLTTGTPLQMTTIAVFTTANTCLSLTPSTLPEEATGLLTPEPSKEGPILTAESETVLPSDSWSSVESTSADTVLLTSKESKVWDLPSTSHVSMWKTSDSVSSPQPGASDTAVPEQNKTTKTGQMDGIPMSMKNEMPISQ

Test [6] addresses ADP376.
Test [7] has as its target T5, ADP353.
T5 chain: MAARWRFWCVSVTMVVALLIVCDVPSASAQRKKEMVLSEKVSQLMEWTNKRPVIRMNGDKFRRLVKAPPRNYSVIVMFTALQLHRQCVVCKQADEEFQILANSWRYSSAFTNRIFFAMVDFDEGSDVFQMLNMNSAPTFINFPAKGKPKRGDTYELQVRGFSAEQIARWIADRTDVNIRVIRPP

Test [8] deals with T6, ADP103.
T6 chain: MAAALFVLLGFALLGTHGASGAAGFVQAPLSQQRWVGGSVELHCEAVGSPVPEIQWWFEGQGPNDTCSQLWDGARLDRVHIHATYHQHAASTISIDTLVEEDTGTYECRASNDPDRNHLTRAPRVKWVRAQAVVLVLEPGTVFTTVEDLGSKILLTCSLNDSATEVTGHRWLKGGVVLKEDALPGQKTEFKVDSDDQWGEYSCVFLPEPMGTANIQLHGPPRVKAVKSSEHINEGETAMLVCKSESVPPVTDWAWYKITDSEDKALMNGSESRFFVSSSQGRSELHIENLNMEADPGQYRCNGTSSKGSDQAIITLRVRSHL

The target of test [9] is T7, ADP098.
T7 chain: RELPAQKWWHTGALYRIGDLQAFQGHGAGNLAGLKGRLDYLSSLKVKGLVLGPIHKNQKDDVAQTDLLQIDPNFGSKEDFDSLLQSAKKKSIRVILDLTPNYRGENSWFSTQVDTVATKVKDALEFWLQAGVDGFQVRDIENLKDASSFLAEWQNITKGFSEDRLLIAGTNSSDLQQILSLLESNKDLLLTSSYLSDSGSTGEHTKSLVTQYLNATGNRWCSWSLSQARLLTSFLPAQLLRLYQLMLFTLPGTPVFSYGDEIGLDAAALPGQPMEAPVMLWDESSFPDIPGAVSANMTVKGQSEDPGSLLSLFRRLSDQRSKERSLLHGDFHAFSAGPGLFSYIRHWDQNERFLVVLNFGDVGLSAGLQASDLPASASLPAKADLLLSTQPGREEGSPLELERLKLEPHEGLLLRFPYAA

B1: ADP183 (protein)
chain: AEEHEITHKTYFDITIDDKPLGRIVFGLYGKVAPKTVENFVSICKGTVVDGKMLHYTNSIFHRIIPNFMAQGGDITNFNGAGGLSIYGKKFEDENFKVNHAKRGLLSMANAGKNTNGAQFFILFIPTPWLDGRHVVFGEVVEGLDKLVHIEAVGTDSGEPLKRVLVKESGELPL
modifications: bait human Fc-tagged dimer; N-glycosylation sequons mutated in Plasmodium baits
On to B1, for which the binding score in test [1] was 5.67; in [2], 6.98. In turn, MNEAKEEKTNMRNNHLSRVTIEILPSDEDNDIFDINDALLDELIGINNI (also: human Fc-tagged dimer) [ADP256] showed a binding score in [3] of 32.7.

B2: ADP397 (protein)
chain: YLSSENQKKTIATVHNNARTNTLKKNNANNNNANDIFGLSPSEVPNLIDDEEEYEILEGVKNNADLTRSTNIDHPSPSSTMIDLDNIITEISKLKKKKLKKEMNNKLEQQTNQNNNAIHHNNENEINTFTQNIKTNSNELKNQDSSNSLISTNSNTMDELLLYSTNSEDNLDISFGELQLYENSDEDTSDYEYVNEDYSVNHIFSNDAEESFNILEDVENIALSSSNRYQYSPIGPYKKKHTKVFENFKMTRNYDEFLKLYNLKDSSDNQEEYYELLAGEPFKLNSYYYRDVKYENVKKYIFKEIYDNIQNIATENKIIVSKKEELFFYFIKSLLKNNFICLSYEEEENLLSESKLLLEAMISKKIQ
modifications: bait human Fc-tagged dimer; N-glycosylation sequons mutated in Plasmodium baits
Consider B2, for which the binding score was 21.9 in test [4] and 7.9 in test [5].

B3: ADP398 (protein)
chain: SNHIKSVNRCFIPFISEYIYKQKNRKNNIAYDSSNSHYNDKIIPCGNYNKQLKYKINFCRNLYFNNKNEYNRICSRNKLNFHNIQTDNTIYKPKKKYYEVGKVREKIKMYTLFKDDKINTLKCNEEESVTSETINKHDSSVKVKGRRKKNIASNENIMNPNNKAVSSINTNLADSSNNKNDNSLNSKKNDNTLNSKKNDNTLNSKKNDNTLNSKNNNNALNSKNNNNALNSKKSNNAYNDKHIDHIIPEGKNKINNNIDVKHNINNKLNEINEEPYEDTHNKEENSANKNDNDEKRKEENNNIARRYIKNDQMSYNNINTNSNEYDKNAATLDETYIGKTFEGYVYSVNKNAACIKLKNINKYGLLFKNKANLGDDIEDMNDFFEKDQPVHVKILGINTKKNIFYLGNIIKYNENIKLSKGEYSKGLITKVCDSYCFIKVLKNGATGYLHKSKLFCMNDKEKKNNDNQNYDNPNNDNPNYDNQNYDNQNYNNPNYDHPNYDNQNYDNQNYNNPNNDYSTSQLYNSDNLQMDFIYKLQFTKIFNIWDIIDVEILGTPQNDYKSNYILTIPRGSKTFKKILNYLNVLKENEDINNIQYKGDYIYSIDNNKNDNIIDSDINNHHINNKKKKKNLYDIQNNMNHAPFNKFHTEDEYLFNDHVQENVHTFYEKNKKYKITYDKENNHKMNKAYYLKKNKELPFNNKFKKIIKNIYDLPNTISLSMLSKTIKIPLASIKKYFIIHENKEYNSAYKINSEQIKRICQHFKIDCNVEQRDDNVVTKVNGATKDCQEKVFKNVAQDRLKEGEQERVIKVEAKIKNDEMVMQEQKDTKEEKHMDVQFIEEKDINVQHINVQDMDVQDMDVQDINVQDMDVQNINVQDINIQDMDVQNINNAITLNKATSCQTDESRDAPGGDQNEALDEKDSMEKSKEKKKKKGKSRKKNKDTNLALKSDSIQKSKTTLDDKKRNVVVTFIGHINHGKTSLFDYICKTNEQKKEYGLITQNIRAFKATVRNNFAFTLVDTPGHEAFMPMRSRGVKISDLSILVISGDEGIQEQTVECIKLIKEFNIKIIIAITKVDIPNVDVDRIINDLLYHDITTELNGGEIQVVECSIYKEESIDKLLDAIYLESEFLNLQTNPDKKHEQAQGVVLDSYIDKNGIVSINLLQNGVLNINDHFYTGSSYGKVKILKDHLNKNIKSAYPSDPIKIIGYNKNSVPVAGDKFYVVENEALAKEIAEHNKNKMLTMEINNFAYDQTNMNRYKDFIISRENKIGGSSGILGENNLKNDIDGNMARDDNMARDDNMASDDNMARDGNRANNDNIASDDNMANDYDKIKETKMYTNNKAFQKDDFLKIHLNNANENVINMDPSTHIGKNEIKTIYSNYIIKCDKQGSIEVLKNCMLKLQKEDSICKIKNKIIYADIGNVASSDIKYATSFNAAIIAFGVKLSNDIKGSKNSKGSKNHNNYPIIYSNVLYELIENVEKEMEKKLSKKPMGELKGTAQILKVFNIAKLGKVAGCIVKKGTISINSNIRILRNDKVIYMGKIISIKIVKEEKTQVTEADECGIGFDNFLDFEPNDIIEAYEN
modifications: bait human Fc-tagged dimer; N-glycosylation sequons mutated in Plasmodium baits
The molecule B3 gave a binding score in [6] of 10.1.

B4: ADP198 (protein)
chain: ENVDTFKCNYAKKKKNGHHIKRHITNDEEKKKEYSFLMLGKENEEENKENKENNQNVNKDNNDNNNNEKKNEEQNHNNEKKQEEVINNNNNNVENKKEEENHNNDKKTDEQNHVNEKKQEGENNKHKKDDTIPPEKKINKENLLEYGTHDKEGHFIPSYKTLTDEILSTNNAMEKASSFLKIACSHVMKLIEFIPESKLSSQYIKVDNKNIYLKDIAVECQNIYFNLEKFSMTLIVFNSKINKFIYSQEK
modifications: bait human Fc-tagged dimer; N-glycosylation sequons mutated in Plasmodium baits
On to B4, for which the binding score in test [7] is 21.4; in test [8], 5.51.

B5: ADP169 (protein)
chain: LIRNSNTPQAFLIPELNNNEKNEFNNNEKNEMNNNLNNEFNNNEENCDIQKIAEEMMENLLNENDMYTNIMLSLQNRLSDDYLCSEPKYENICIHEKDKISLSFPCSNPKYEKLIHKFTFKKLCNSKAAFNNALLKSFIEEDEEQNTFSLMLKQFKILLTCVDDELKDIYKESIDLLVDLKTSITELTQKLWSGKMVNVLKKREFLITGILCELRNGNKAPLISKSLEFENLGILKMNNEELLNEAYNAFSDYYYFFPYFIQKLLEKGGMIERLIKIHENLAKYRTKDMVNKINAQSKGEVLNNEDILNKLNAYKHYTKHGATSFIQSREVKIVNQNVNNDDTTKNQQQNVNNNEKLNNNNNNNNNQQVNNNNNNNNQQVNNNNNNNNNQVNNNNNNNNNQVNNNNYNNNNQVNNNNNNNQQVNNNNNYNNQLNNNNFNNNLQVNKNDKHVPKNNHATATHTNNILYNPLYSINPEKPKDIIKLLKDLIKYLHIVKFENNEPTTNIDEEGIRKLLENSFFDLNDDILIVRLLLKPQTVILTVIQSFMLMTPSPSRDAKAYCKKALINDQLVPTNDANILSEENELVNNFATKYVLIYEKMKLQELKEMEESKLKMKYSKTNLAALQVTNPQNNKDKNDASNKNNNPNNAATPLIAVVTDLSGEKTEDIINNNVDIATLSVGVQNTFQGP
modifications: bait human Fc-tagged dimer; N-glycosylation sequons mutated in Plasmodium baits
In test [9], B5 returned a binding score of 11.2.
